# Measured values reported in patent US20100150950A1, “HUMAN ANTIBODIES THAT BIND CD70 AND USES THEREOF” (Medarex, Inc., priority 2006, published 2010).
# Where a chain is given by its changes, count along the chain named.
# B1: anti-CD70 human monoclonal antibody 69A7 (antibody, V domains shown)
# VH: QVQLQESGPGLVKPSETLSLTCTVSGGSVSSDYYYWSWIRQPPGKGLEWLGYIYYSGSTNYNPSLKSRVTISVDTSKNQFSLKLRSVTTADTAVYYCARGDGDYGGNCFDYWGQGTLVTVSS
# VL: EIVLTQSPATLSLSPGERATLSCRASQSVSSYLAWYQQKPGQAPRLLIFDASNRATGIPARFSGSGSGTDFTLTISSLEPEDFAVYYCQQRSNWPLTFGGGTKVEIK
# notes: Human IgG from hybridoma; also called HuMAb 69A7; FITC-conjugated 69A7
# B2: 2H5 NF: 2H5 HuMAb lacking fucosyl residues, expressed in CHO cell line Ms704-PF (antibody, V domains shown)
# VH: QVQLVESGGGVVQPGRSLRLSCAASGFTFSSYIMHWVRQAPGKGLEWVAVISYDGRNKYYADSVKGRFTISRDNSKNTLYLQMNSLRAEDTAVYYCARDTDGYDFDYWGQGTLVTVSS
# VL: B1 VL with F49Y, S92T
# Tests used:
# [1] = molecular target: T1, CD70 expressed on the surface of Daudi lymphoma cells (Homo sapiens, UniProt P32970); experiment: Flow cytometry binding to Daudi cells; details: antibody 1 μg/ml
# T1 construct: endogenous in cells; host or cells: Daudi (ATCC CCL-213), HuT 78 (TIB-161), Raji (CCL-86), Granta 519 (DSMZ 342)
# T1 sequence (P32970 1-193): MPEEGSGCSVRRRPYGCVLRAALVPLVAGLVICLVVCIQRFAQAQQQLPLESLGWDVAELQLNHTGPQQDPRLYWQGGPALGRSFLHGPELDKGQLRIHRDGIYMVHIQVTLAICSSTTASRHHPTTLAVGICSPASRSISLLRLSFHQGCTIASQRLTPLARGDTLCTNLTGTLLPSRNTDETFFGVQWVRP
# Protocol: Anti-CD70 antibodies were tested for binding to lymphoma cells expressing CD70 on their cell surface by flow cytometry.
# The lymphoma cell lines Daudi (ATCC Accession No. CCL-213), HuT 78 (ATCC Accession No. TIB-161) and Raji (ATCC Accession No. CCL-86) were each tested for antibody binding. Binding of the HuMAb 2H5 anti-CD70 human monoclonal antibody was assessed by incubating 1×10^5 cells with 2H5 at a concentration of 1 μg/ml. The cells were washed and binding was detected with a FITC-labeled anti-human IgG Ab. […] Flow cytometric analyses were performed using a FACSCalibur flow cytometry (Becton Dickinson, San Jose, Calif.). The anti-CD70 monoclonal antibody 2H5 bound to the lymphoma cell lines Daudi, HuT 78 and Raji, as measured by the mean fluorescent intensity (MFI) of staining.
# The Daudi lymphoma cell line and 786-O renal carcinoma cell were further tested for antibody binding. Binding of the HuMAb 69A7 anti-CD70 human monoclonal antibody was assessed by incubating 2×10^5 cells with 69A7 at a concentration of 1 μg/ml. The cells were washed and binding was detected with a FITC-labeled anti-human IgG Ab. […] The anti-CD70 monoclonal antibody 69A7 bound to the Daudi lymphoma cell line and 786-O renal carcinoma cell line, as measured by the mean fluorescent intensity (MFI) of staining.
# CD70 on Raji cells = molecular target: T2, CD70 on Raji cells (Homo sapiens, UniProt P32970); experiment: Competition FACS assay with FITC-conjugated 69A7 on Raji cells; assay type: binding; details: naked antibody 10 μg/ml, then FITC-conjugated 69A7 10 μg/ml
# T2 construct: endogenous in cells; host or cells: Daudi (ATCC CCL-213), HuT 78 (TIB-161), Raji (CCL-86), Granta 519 (DSMZ 342)
# T2 sequence (P32970 1-193): T1 sequence (P32970 1-193)
# Protocol: A competition FACS assay was carried out to elucidate the binding specificity of 69A7 against 2H5. Raji cells were incubated with either naked 69A7, 2H5, an isotype control antibody or no antibody at a concentration of 10 μg/ml. After wash, the cells were incubated with FITC-conjugated 69A7 at a concentration of 10 μg/ml. The cells were washed and binding was detected with a FITC-labeled anti-human IgG Ab. Flow cytometric analyses were performed using a FACSCalibur flow cytometry (Becton Dickinson, San Jose, Calif.).
# IM-9 cells = experiment: ADCC fluorescence cytotoxicity assay, IM-9; assay type: cell-based, human; details: target to effector ratio 1:50
# Protocol: In this example, a defucosylated and non-defucosylated anti-CD70 monoclonal antibody was tested for the ability to kill CD70+cells in the presence of effector cells via antibody dependent cellular cytotoxicity (ADCC) in a fluorescence cytotoxicity assay
# Human Anti-CD70 monoclonal antibody 2H5 was defucosylated as described above. Human effector cells were prepared from whole blood as follows. Human peripheral blood mononuclear cells were purified from heparinized whole blood by standard Ficoll-paque separation. The cells were resuspended in RPMI1640 media containing 10% FBS (culture media) and 200 U/ml of human IL-2 and incubated overnight at 37° C. The following day, the cells were collected and washed once in culture media and resuspended at 2×10^7 cells/ml. […]
# The CD70+ cell lines ARH-77 (human B lymphoblast leukemia; ATCC Accession No. CRL-1621), MEC-1 (human chronic B cell leukemia; DSMZ Accession No. ACC 497), SU-DHL-6 (human B cell lymphoma, DSMZ Accession No. Acc572), IM-9 (human B lymphoblast; ATCC Accession No. CCL-159) and HuT 78 (human cutaneous lymphocyte lymphoma; ATCC Accession No. TIB-161), were tested for antibody specific ADCC to the defucosylated and non-defucosylated human anti-CD70 monoclonal antibody 2H5 using the Delfia fluorescence emission analysis as follows. […]
# [2] = tested on: CD70 costimulation of human CD3+ T cells; experiment: CD70 co-stimulated human T cell proliferation and IFN-γ secretion; assay type: cell-based; details: CHO-S/mCD32/CD70 cells + anti-hCD3, 3 days
# Protocol: In this experiment, the HuMAb anti-CD70 antibody 2H5 was tested for inhibition of inflammatory responses. CHO-S cells stably transfected with mouse CD32 (CHO-S/mCD32 cells) were transiently transfected with a full length human CD70 construct (CHO-S/mCD32/CD70 cells). Surface expression was confirmed by flow cytometry using 2A5 and PE conjugated anti-human IgG secondary Ab (data not shown). RosetteSep® Human T Cell Enrichment Kit (Cat# 15061; StemCell Technologies Inc) purified human peripheral blood CD3^+ T cells were stimulated in vitro at 1×10^6/well with 1×10^5 CHO-S/mCD32 or CHO-S/mCD32/CD70 cells/well, 1μg/ml anti-hCD3 (clone OKT3; BD Bioscience) and serial dilutions of either the HuMAb 2H5 or non-fucosylated 2H5 (2H5 NF) in triplicate wells of a 96 well plate. After 3 days supernatant aliquots were collected and interferon-gamma (INF-γ) secretion was measured by a quantitative ELISA kit (BD Biosciences). The plates were pulsed with 1 μCi/ml of ^3H-thymidine, incubated for 8 hours, cells were harvested and ^3H-thymidine incorporation was read on a Trilux® 1450 Microbeta Counter (Wallac, Inc.). An IgG1 isotype control antibody was used as a negative control. […] Data also show 2H5 inhibition is specific to CD70 costimulation as 2H5 had no effect on anti-CD3^+ CHO-S/mCD32 mediated proliferation. […]
Molecule,binding to Daudi cells (MFI) [1],blocking of FITC-labeled 69A7 binding (CD70 on Raji cells),"ADCC, % specific lysis of IM-9 (IM-9 cells)",CD70 co-stimulated INF-γ secretion [2],CD70 co-stimulated proliferation [2]
B1,bound,blocked binding,,,
B2,,,increased percentage of specific lysis,completely inhibited,completely inhibited
